Assay results reported in patent US20170002079A1 (Amgen, published 2017).
Substitutions are numbered along the chain they refer to.

T1: human ST2 on primary human cells (human, UniProt Q01638 19-556)
T1 sequence: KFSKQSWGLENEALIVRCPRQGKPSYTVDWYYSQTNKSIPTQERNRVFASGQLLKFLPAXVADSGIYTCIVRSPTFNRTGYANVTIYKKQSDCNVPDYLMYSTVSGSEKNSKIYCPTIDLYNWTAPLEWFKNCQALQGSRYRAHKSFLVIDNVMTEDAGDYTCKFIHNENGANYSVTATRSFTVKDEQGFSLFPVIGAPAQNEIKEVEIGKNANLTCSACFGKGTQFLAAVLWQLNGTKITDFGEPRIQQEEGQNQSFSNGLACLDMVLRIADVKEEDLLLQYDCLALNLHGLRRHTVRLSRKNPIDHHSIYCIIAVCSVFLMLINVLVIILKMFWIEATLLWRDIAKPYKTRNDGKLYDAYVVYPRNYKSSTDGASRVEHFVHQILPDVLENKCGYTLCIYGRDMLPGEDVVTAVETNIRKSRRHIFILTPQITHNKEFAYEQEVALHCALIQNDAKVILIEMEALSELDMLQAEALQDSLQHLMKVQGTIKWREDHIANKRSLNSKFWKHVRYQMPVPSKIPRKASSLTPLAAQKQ

T2: cynomolgus monkey ST2 on cynomolgus monkey CD4+ T cells (cynomolgus monkey, UniProt Q01638 19-556 (human entry))
T2 chain: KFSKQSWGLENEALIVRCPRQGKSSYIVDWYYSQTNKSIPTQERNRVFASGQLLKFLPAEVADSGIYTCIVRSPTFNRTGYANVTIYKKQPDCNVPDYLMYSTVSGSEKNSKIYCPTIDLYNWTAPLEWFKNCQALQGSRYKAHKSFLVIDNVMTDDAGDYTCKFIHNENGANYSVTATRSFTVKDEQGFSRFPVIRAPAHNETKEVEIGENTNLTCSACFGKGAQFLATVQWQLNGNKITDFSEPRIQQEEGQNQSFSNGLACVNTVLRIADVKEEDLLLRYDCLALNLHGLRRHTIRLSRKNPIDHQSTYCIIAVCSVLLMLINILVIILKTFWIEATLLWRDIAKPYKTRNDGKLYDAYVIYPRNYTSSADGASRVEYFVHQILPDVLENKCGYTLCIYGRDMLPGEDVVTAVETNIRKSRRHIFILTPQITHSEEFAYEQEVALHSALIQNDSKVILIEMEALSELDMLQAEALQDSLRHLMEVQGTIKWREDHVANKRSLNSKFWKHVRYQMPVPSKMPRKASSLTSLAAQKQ

B1: Ab1 (antibody, human IgG2, kappa, V domains shown)
VH: QVQLVQSGAEVKKPGASVKVSCKVSGYTLTELSIHWVRQAPGKGLEWMGGFGPEDGETIYAQKFQGRVTMTEDTSTDTAYMELSSLRSEDTAVYYCTTEDSSGLFDYWGQGTLVTVSS
VL: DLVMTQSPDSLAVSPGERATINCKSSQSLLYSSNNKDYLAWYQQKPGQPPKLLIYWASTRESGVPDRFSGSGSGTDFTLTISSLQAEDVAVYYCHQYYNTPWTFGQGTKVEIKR
notes: Fully human anti-ST2 antibody (XenoMouse); Full chains are the exemplary Ab1 chains
B2: Ab3 (antibody, human IgG2, kappa, V domains shown)
VH: EVQLVESGGGLVQPGGSLRLSCAASGFTFSTYDMHWIRQAPGKNLEWVSAIDLAGDTYYPGSVKGRFTISREDAKNSLYLQMNSLRAGDTAVYYCARGGDGYNYDYYGIDVWGQGTTVTVSS
VL: DIVMTQSPLSLPVTPGEPASISCRSSQSLLHSDGYHYLDWYLQKPGQSPQLLIYLGSNRASGVPDRFTGSGSGTDFTLKISRVEAEDVGVYYCMQALQILTFGGGTKVEIKR
notes: Fully human anti-ST2 antibody
B3: Ab2 (antibody, human IgG2, kappa, V domains shown)
VH: EVQLVQSGAEVKKPGESLKISCKGSGYSFTNYWIGWVRQMPGKGLEWMGIIYPGNSDTRFSPSFQGQVTISADKSITTAYLQWSSLKASDTAMYYCARHGTSSDYYGLDVWGQGTTVTVSS
VL: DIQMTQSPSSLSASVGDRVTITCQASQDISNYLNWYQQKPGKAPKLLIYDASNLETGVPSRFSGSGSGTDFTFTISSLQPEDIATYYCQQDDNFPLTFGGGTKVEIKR
notes: Fully human anti-ST2 antibody (XenoMouse); Full chains are the exemplary Ab2 chains
B4: Ab4 (antibody, human IgG2, kappa, V domains shown)
VH: QVQLVQSGAEVKKPGASVKVSCEVSGFILTELSVNWVRQAPGKGLEWMGGFDPEDGKTIYAQKFQGRVTLTEDTSTDTAYMELSSLRSEDTAVYYCATWWDFHFDFWGQGTLVTVSS
VL: DFVMTQTPLSLSVTPGQPASISCKSSQSLLHSNGKTYLYWFLQKPGQPPQLLIYEVSNRFSGVPDRFSGSGSGTDFTLKISRVEAEDVGVYYCMQSIQLPLTFGGGTKVEIKR
notes: Fully human anti-ST2 antibody
B5: Ab6 (antibody, human IgG2, kappa, V domains shown)
VH: B2 VH with I37V, A40T, P41T, N44G
VL: B2 VL with T68S, K79N, I99T
B6: Ab7 (antibody, human IgG2, kappa, V domains shown)
VH: B2 VH with I37V, A40T, P41T, N44G
VL: B2 VL with T68S, K79N, I99T
B7: Ab5 (antibody, human IgG2, kappa, V domains shown)
VH: EVQLVESGGGWVQPGGSLRLSCAASGFTFSSYDMYWVRQATGKGLEWVSGIDTVGDTYYPDSVKGRFTISRENAKNSVYLQMNTLRAGDTAVYYCVRGIYGDFYYYGLDVWGHGTTVTVSS
VL: B2 VL with H31Y, Y35N, H36N, Q50H, T68S, E86D, I99T
B8: Ab8 (antibody, human IgG2, kappa, V domains shown)
VH: EVQLVESGGGLVQPGGSLRLSCAASGFTFSSYDMYWVRQATGKGLEWVSAIDTVGDTYYPGSVKGRFTISRENAKNSLYLQMNSLRVGDTAVYYCARGGDYDYSYYGMDVWGQGTTVTVSS
VL: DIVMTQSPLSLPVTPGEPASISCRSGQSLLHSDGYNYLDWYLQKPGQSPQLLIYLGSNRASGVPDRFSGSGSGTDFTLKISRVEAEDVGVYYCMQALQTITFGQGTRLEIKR

These binders were tested against ST2 (Example 4, pH-sensitive binding) (assay: SPR Biacore 4000; association at pH 7.4, dissociation at pH 7.4; estimated kd).
Description: (§1) The association (5 min) rates at pH 7.4 and dissociation (10 min) rates at pH 5.5 and 7.4 were monitored at a flow rate of 30 uL/min. The reference subtracted data was fit to a 1:1 model in Scrubber.

koff [s⁻¹] | Binder
0.000134 | B1
2.73e-05 | B2
2.98e-05 | B3
0.000632 | B4

What follows are binders tested against ST2 (Example 4, pH-sensitive binding) (assay: SPR Biacore 4000; association at pH 7.4, dissociation at pH 5.5; estimated kd).
Description: as §1

koff [s⁻¹] | Binder
0.0118 | B1
7.91e-05 | B2
0.000238 | B3
0.0107 | B4

What follows are binders tested against ST2 (Example 4, pH-sensitive binding) (assay: SPR Biacore 4000; kd at pH 5.5 against kd at pH 7.4).
Description: as §1

pH 7.4/pH 5.5 kd fold change [fold] | Binder
88.1 | B1
2.9 | B2
8 | B3
16.9 | B4

The binders below were run against T1, human ST2 on primary human cells (assay: cell-based or functional assay).

IC50 (read off the curve); % inhibition of IL-5 production by human CD4+ T cells stimulated with human IL-33 + IL-2 [µg/mL] | Binder
~0.09 | B5
~0.02 | B6
~0.09 | B7
~0.3 | B2
~0.03 | B3
~0.08 | B4
~0.9 | B8

Molecular target: T1, human ST2 on primary human cells
Assay: cell-based or functional assay
Remark: another data set of the same source

IC50 (nM), inhibition of human IL-33-induced IL-5 production from human CD4+ T cells [nM] | Binder
6.9 | B8

Molecular target: T2, cynomolgus monkey ST2 on cynomolgus …
Assay: cell-based or functional assay

IC-50, cynomolgus monkey CD4+ T cell IFNγ release assay (IL-33, IL-2 and IL-12p70 stimulation) [pM] | Binder
158 | B8

Molecular target: T1, human ST2 on primary human cells
Assay: cell-based or functional assay
Remark: another data set of the same source

IC-50, human eosinophil IL-8 release assay (IL-33 and IL-3 stimulation) [pM] | Binder
3120 | B8
